Test [1] concerns the target UL25 of HSV-2 (component of the capsid-vertex-specific component, CVSC) (herpes simplex virus 2 strain MS) (UniProt P89448). Nature of the test: cryo-EM structure; HSV-2 (MS strain) C-capsids assembled in infected Vero cells, detergent-treated (1% NP-40) and purified on sucrose gradients, in PBS; icosahedral plus block-based reconstruction, 3.75 Å overall (CVSC map 4.3 Å, CVSC head about 10 Å).

The target in test [2] is small capsid protein VP26 of HSV-2 (herpes simplex virus 2 strain MS) (UniProt P89458). The description is as above.

The term stoichiometry N denotes a count of units in the complex or per binding partner.

For the substance “UL25 of HSV-2 (component of the capsid-vertex-specific component, CVSC) (from UniProt P89448 1-585) (natural protein)”, the stoichiometry N in test [1] was found to be 2.
“small capsid protein VP26 of HSV-2 (from UniProt P89458 1-112) (natural protein)”: the stoichiometry N in test [2] was determined as 6.
